In patent US20170100454A1 (VANDERBILT UNIVERSITY, published 2017):
One block for each molecule: values may come before it. Positions of bridges follow the written chain, without caps; N, C: chain ends. No end group written: not given here. *: point of attachment. Biotin = O=C1N[C@H]2[C@H](CS[C@H]2CCCCC(=O)*)N1

Experiments:
[1] = target: GST-tagged Imp α5 ΔIBB (human) (UniProt P52294); experiment: BLI (Octet RED96), biotinylated N50 on SA biosensors, GST-tagged Imp α5 ΔIBB at 50-200 nM, 2:1 model; column Imp α5 Minor
GST-tagged Imp α5 ΔIBB (human), sequence (P52294 101-529, stated change not applied): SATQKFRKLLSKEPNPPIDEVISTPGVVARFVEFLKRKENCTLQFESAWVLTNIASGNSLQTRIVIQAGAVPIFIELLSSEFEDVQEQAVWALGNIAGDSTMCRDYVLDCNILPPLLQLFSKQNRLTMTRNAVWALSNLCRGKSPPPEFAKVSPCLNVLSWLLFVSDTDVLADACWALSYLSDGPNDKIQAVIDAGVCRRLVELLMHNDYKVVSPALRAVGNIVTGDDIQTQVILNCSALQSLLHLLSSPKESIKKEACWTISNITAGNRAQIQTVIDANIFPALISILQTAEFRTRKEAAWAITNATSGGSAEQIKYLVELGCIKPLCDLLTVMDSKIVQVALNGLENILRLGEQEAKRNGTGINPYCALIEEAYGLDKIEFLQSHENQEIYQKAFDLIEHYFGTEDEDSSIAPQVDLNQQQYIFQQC

[2] = target: GST-tagged Imp α5 ΔIBB (human) (UniProt P52294); experiment: BLI (Octet RED96), biotinylated N50 on SA biosensors, GST-tagged Imp α5 ΔIBB at 50-200 nM, 2:1 model; column Imp α5 Major
[3] = target: GST-tagged Imp α5 ΔIBB (human) (UniProt P52294); experiment: BLI, biotinylated N50 on SA biosensors; reference is GST-tagged Imp α1 ΔIBB
[4] = target: T1, Endogenous human importin beta 1 (human, UniProt Q14974 1-876); experiment: pull-down: biotinylated peptide in Jurkat T whole cell lysate, streptavidin-coated beads, immunoblot
T1 construct: mature; Endogenous protein in whole cell lysates, and in Hep-G2 cells for the functional rows; also called Imp β1; KPNB1
T1 sequence (Q14974 whole entry): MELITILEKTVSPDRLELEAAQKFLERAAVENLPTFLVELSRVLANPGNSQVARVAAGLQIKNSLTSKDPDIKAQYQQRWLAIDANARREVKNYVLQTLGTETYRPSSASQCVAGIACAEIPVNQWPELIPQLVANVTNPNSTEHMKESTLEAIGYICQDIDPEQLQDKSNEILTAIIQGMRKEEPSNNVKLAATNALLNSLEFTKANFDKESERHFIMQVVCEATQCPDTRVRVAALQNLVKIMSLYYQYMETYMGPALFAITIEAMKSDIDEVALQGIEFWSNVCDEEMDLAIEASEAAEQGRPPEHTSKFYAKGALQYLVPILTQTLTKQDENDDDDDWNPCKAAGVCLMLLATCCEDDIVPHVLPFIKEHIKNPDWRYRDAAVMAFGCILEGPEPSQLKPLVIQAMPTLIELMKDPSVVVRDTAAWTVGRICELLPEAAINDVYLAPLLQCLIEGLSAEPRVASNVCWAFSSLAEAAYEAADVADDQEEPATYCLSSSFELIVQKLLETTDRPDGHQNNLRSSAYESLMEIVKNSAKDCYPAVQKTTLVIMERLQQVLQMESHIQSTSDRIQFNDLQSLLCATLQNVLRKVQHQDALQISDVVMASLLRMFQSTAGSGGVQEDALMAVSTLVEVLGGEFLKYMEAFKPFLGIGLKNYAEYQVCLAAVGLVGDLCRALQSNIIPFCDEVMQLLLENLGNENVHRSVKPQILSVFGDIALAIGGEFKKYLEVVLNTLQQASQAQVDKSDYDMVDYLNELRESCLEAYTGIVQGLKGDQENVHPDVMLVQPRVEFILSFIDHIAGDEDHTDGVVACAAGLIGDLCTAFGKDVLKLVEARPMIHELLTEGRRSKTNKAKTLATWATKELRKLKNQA

[5] = target: T2, GAPDH (Homo sapiens, UniProt P04406); experiment: as above
T2 construct: endogenous, as present in the lysate; also called cellular protein GAPDH
T2 sequence (P04406 2-335 limits assumed): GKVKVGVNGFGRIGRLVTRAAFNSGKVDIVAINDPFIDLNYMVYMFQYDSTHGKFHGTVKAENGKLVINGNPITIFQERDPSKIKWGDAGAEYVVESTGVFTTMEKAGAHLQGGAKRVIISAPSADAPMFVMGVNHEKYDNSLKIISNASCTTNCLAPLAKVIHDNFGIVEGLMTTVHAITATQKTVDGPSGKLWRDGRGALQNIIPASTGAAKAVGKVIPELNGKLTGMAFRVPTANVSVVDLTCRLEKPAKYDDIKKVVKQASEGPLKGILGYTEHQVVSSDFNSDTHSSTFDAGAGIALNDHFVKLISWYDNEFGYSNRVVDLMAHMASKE

[6] = target: T3, Endogenous human importin alpha 7 (human, UniProt O60684 1-536); experiment: pull-down with biotinylated peptide and SA beads from whole cell lysate, immunoblot
T3 construct: mature; also called Imp α7

[7] = target: T1, Endogenous human importin beta 1; experiment: as above
[8] = target: T2, GAPDH; experiment: pull-down: biotinylated peptide in Jurkat T whole cell lysate, streptavidin-coated beads, immunoblot [A]
[9] = target: T3, Endogenous human importin alpha 7; experiment: pull-down: biotinylated peptide in Jurkat T whole cell lysate, streptavidin-coated beads, immunoblot
[10] = target: T4, Endogenous human importin alpha 3 (human, UniProt O00629 2-521); experiment: as above
T4 construct: mature; also called Imp α3
T4 sequence (looked up): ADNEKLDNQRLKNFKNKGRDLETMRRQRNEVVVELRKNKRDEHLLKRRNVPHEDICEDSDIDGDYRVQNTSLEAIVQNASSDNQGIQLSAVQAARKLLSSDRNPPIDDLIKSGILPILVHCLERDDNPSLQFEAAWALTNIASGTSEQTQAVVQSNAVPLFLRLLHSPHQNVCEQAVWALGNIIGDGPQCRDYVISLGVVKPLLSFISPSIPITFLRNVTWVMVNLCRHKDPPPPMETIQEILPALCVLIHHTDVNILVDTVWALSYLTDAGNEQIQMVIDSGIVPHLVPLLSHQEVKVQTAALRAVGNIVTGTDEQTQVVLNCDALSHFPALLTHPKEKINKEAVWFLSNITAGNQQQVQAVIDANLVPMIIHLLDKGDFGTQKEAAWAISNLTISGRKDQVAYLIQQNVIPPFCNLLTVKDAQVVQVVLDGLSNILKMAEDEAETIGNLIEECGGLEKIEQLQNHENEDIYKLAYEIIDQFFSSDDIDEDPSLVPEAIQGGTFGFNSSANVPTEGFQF

[11] = target: Endogenous human importin alpha 1 (human) (UniProt P52292); experiment: competition pull-down, 1.5 mg/mL Jurkat T cell lysate, 300 µM free N50 against biotinylated N50 on SA beads, quantitative immunoblot
[12] = target: T5, Endogenous human importin alpha 4 (human, UniProt O00505 2-521); experiment: as above
T5 construct: mature; also called Imp α4
T5 sequence (looked up): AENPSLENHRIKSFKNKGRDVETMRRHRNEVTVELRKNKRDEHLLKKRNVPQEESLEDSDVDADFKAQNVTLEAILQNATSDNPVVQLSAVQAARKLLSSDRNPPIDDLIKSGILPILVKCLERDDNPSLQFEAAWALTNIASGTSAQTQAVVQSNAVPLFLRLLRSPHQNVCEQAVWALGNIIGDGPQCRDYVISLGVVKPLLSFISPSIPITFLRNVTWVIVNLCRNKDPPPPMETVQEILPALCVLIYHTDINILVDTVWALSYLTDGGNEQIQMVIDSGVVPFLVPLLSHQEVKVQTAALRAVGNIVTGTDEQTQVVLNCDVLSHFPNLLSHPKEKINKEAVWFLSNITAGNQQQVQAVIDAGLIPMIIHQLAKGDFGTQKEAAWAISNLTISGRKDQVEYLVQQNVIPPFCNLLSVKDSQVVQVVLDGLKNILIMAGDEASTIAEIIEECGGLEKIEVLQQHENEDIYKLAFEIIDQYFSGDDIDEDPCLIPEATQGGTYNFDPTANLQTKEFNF

[13] = target: T6, Endogenous human importin alpha 5 (human, UniProt P52294 1-529 at identity 1.00)); experiment: competition pull-down at 1.5 mg/mL Jurkat T lysate protein, biotinylated N50 on streptavidin beads as competitor, quantitative immunoblot
T6 construct: Endogenous protein in whole cell lysates, and in Hep-G2 cells for the functional rows; also called Imp α5; KPNA1
T6 sequence (P52294 1-529 S73N): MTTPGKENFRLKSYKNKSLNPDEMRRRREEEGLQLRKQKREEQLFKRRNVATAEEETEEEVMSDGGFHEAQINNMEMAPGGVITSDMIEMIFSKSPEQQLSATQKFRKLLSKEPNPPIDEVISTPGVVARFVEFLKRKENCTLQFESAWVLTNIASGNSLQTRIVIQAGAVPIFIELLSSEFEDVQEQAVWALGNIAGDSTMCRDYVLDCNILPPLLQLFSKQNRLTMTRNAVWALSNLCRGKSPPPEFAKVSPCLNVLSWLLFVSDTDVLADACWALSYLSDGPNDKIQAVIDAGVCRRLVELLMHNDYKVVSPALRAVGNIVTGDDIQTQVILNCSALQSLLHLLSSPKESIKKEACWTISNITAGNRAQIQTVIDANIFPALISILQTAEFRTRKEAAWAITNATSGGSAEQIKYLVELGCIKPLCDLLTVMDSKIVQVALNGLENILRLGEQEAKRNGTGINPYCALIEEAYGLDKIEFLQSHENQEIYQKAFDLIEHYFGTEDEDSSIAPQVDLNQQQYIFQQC

[14] = target: T3, Endogenous human importin alpha 7; experiment: pull-down with biotinylated AR1 and SA beads from Jurkat T cell lysate, immunoblot
[15] = target: T4, Endogenous human importin alpha 3; experiment: as above
[16] = target: T6, Endogenous human importin alpha 5; experiment: as above
[17] = target: T5, Endogenous human importin alpha 4; experiment: as above

- Kd [1]: 140 nM
- Kd [2]: 73 nM
- fold maximum response against Imp α1 [3]: > 20 fold
Molecule: Biotinylated N50 peptide

- binding result [4]: no binding
- binding result [5]: no binding
Molecule: IQLRKQKREQQLFKRRNVELI (also: biotinylated (position and linker not given here)) [Biotinylated AR7 peptide (auto-inhibitory region of Imp α7)]

- binding result [6]: no binding
- binding result [7]: no binding
- binding result [8]: no binding
Molecule: Biotin-GGGGGCVQRKRQKLMPC (disulfide 6-17 (inferred), also called cyclized N50) [Biotinylated cN50.1 peptide]

- binding result [9]: no binding
- binding result [10]: no binding
- binding result [4]: no binding
- binding result [5]: no binding
Molecule: LQLRKQKREEQLFKRRNVATA (also: biotinylated (position and linker not given here)) [Biotinylated AR5 peptide (auto-inhibitory region of Imp α5)]

- percent reduction of band intensity [11]: 20%
- percent reduction of band intensity [12]: 20%
- IC50 (read off the curve) [13]: ~10000 nM
B1: Unlabeled N50 peptide (peptide)
peptide: VQRKRQKLMP
notes: also called free N50; non-biotinylated N50 peptide

- binding result [14]: no binding
- binding result [15]: no binding
- binding result [16]: no binding
- binding result [17]: no binding
- binding result [4]: no binding
- binding result [5]: no binding
Molecule: VELRKAKKDDQMLKRRNVSSF (also: biotinylated (position and linker not given here)) [Biotinylated AR1 peptide (auto-inhibitory region of Imp α1)]

- binding result [9]: no binding
- binding result [4]: no binding
- binding result [5]: no binding
Molecule: VELRKNKRDEHLLKRRNVPHE (also: biotinylated (position and linker not given here)) [Biotinylated AR3 peptide (auto-inhibitory region of Imp α3)]

- binding result [9]: no binding
- binding result [4]: no binding
- binding result [5]: no binding
Molecule: VELRKNKRDEHLLKKRNVPQE (also: biotinylated (position and linker not given here)) [Biotinylated AR4 peptide (auto-inhibitory region of Imp α4)]
